These results are taken from patent US20080187528A1 (FUNCTIONAL GENETICS, published 2008).

The target in this experiment is T1, Ebola VP40 (1-326) (Ebola virus (EBOV), UniProt Q05128 1-326).
T1 sequence: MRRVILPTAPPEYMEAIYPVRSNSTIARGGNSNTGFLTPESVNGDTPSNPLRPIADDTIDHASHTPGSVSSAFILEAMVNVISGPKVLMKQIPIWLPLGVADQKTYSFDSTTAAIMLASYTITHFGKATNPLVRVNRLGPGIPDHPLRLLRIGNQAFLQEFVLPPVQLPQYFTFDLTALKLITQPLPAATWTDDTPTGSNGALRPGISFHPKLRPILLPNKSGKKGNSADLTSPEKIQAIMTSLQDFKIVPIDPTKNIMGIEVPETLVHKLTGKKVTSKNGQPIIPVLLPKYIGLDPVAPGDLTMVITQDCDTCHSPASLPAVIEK
The experiment can be described thus: co-immunoprecipitation with anti-Myc antibody from 293T lysates.

B1: TSG101 1-140 truncated mutant, C-terminally tagged with a Myc epitope (other)
chain: MAVSESQLKKMVSKYKYRDLTVRETVNVITLYKDLKPVLDSYVFNDGSSRELMNLTGTIPVPYRGNTYNIPICLWLLDTYPYNPPICFVKPTSSMTIKTGKHVDANGKIYLPYLHEWKHPQSDLLGLIQVMIVVFGDEPP
notes: Expressed in 293T cells
B1: the binding result is given as “no binding”.
